Test results reported in article PMC8809517, “Cofactor-independent RNA editing by a synthetic S-type PPR protein”.
Residue numbers refer to the chain shown, from its start.

Experiments:
Experiment in all cases: high-throughput RNA pulldown from lysate on Ni-NTA beads; HRP: 50 mM Tris pH 8, 150 mM NaCl, 1 mM beta-mercaptoethanol, 50 ug/ml BSA, 3 ug/ml yeast RNA, 0.5% heparin; ITC and FP: Tris pH 8, 200 mM KCl, 5% glycerol; MST: 50 mM Tris pH 8, 200 mM NaCl, 1 mM DTT, BSA, heparin, 0.05% Tween 20
Details in all cases: tags: N-terminal His-eGFP
[1] = biological target: T1, GFP-9S library array, motif 4 ND N98G;D124M (synthetic construct, N98G;D124M)
T1 chain: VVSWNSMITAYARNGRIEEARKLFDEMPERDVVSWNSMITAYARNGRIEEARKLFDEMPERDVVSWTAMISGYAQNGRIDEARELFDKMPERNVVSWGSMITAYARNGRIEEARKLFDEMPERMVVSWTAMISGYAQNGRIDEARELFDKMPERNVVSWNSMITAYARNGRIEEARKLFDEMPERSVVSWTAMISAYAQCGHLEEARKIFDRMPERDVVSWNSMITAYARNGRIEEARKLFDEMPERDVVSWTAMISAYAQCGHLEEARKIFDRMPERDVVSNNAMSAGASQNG

[2] = biological target: T2, GFP-9S library array, motif 4 ND N98I;D124R (synthetic construct, N98I;D124R)
T2 chain: T1 chain with G98I, M124R

[3] = biological target: T3, GFP-9S library array, motif 4 ND N98C;D124K (synthetic construct, N98C;D124K)
T3 chain: T1 chain with G98C, M124K

[4] = biological target: T4, GFP-9S library array, motif 4 ND N98S;D124S (synthetic construct, N98S;D124S)
T4 chain: T1 chain with G98S, M124S

[5] = biological target: T5, GFP-9S library array, motif 4 ND N98R;D124K (synthetic construct, N98R;D124K)
T5 chain: T1 chain with G98R, M124K

## AUUACACGUGA (ssRNA) [Cy5-rpoA]
[1]; label: 5' Cy5
  Kd: 57.8 nM
[2]; label: 5' Cy5
  Kd: 86.4 nM
[3]; label: 5' Cy5
  Kd: 96.2 nM
[4]; label: 5' Cy5
  Kd: 112 nM
[5]; label: 5' Cy5
  Kd: 136 nM

## AUUAAACGUGA (ssRNA) [IR-rpoA-A]
[1]; label: 5' IRDye 800CW
  Kd: 94.3 nM
[2]; label: 5' IRDye 800CW
  Kd: 168 nM
[3]; label: 5' IRDye 800CW
  Kd: 66.3 nM
[4]; label: 5' IRDye 800CW
  Kd: 65.3 nM
[5]; label: 5' IRDye 800CW
  Kd: 420 nM

## AUUAUACGUGA (ssRNA) [IR-rpoA-U]
[1]; label: 5' IRDye 800CW
  Kd: 149 nM
[2]; label: 5' IRDye 800CW
  Kd: 113 nM
[3]; label: 5' IRDye 800CW
  Kd: 139 nM
[4]; label: 5' IRDye 800CW
  Kd: 69.8 nM
[5]; label: 5' IRDye 800CW
  Kd: 202 nM

## AUUAGACGUGA (ssRNA) [Cy5-rpoA-G]
[1]; label: 5' Cy5
  Kd: 66 nM
[2]; label: 5' Cy5
  Kd: 97.3 nM
[3]; label: 5' Cy5
  Kd: 91.1 nM
[4]; label: 5' Cy5
  Kd: 251 nM
[5]; label: 5' Cy5
  Kd: 161 nM
